The values below come from patent US20130230533A1 (Regeneron, published 2013).

A word on the Kd: it is the free concentration of one partner at which half of the binding sites on the other are occupied at equilibrium, for simple one-to-one binding. Low values mean a tighter complex, high ones a looser complex. One may read the koff as the first-order rate constant of dissociation. The low end stands for a long-lived complex, the high end for a short-lived complex. Broadly, the kon is a measure of how fast the partners come together.

One assay has as its target T1, Monomeric human CD48-mmH (human).
T1 chain: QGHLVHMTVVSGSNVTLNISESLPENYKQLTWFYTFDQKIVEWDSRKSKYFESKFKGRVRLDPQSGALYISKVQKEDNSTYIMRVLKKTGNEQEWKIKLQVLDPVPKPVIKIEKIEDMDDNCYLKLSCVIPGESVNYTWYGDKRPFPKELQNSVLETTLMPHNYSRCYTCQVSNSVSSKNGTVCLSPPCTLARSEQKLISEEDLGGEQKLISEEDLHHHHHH
As to the kind of experiment: SPR (Biacore), antibody captured by anti-Fc, CD48 in solution, 37 C. The method, then:
(§1) Measurements were conducted on a T100-2 BIACORE™ instrument (Biacore Life Sciences division of GE Healthcare, Piscataway, N.J.). Antibodies (either with mouse Fc [designated “H2M” or “H3M”] or human IgG4 Fc [designated “H4H”]) were captured through an anti-Fc chip surface, and CD48 was flowed over the surface either in a monomeric (soluble CD48 expressed with a myc-myc-hexa-histidine C-terminal tag [mmH]) or dimeric (soluble CD48 expressed with a C-terminal Fc fusion [mFc]) format.
(§2) The soluble CD48 was applied to the flow cell in separate injections at different concentrations, and kinetic association (kₐ) and dissociation (kd) rate constants were determined by fits to the kinetic binding data using Biacore software. Binding dissociation equilibrium constants and dissociation half-times were calculated from the kinetic rate constants as: KD=kd/kₐ; t_{1/2}=(ln 2/kd) (units: ka=M⁻¹*s⁻¹; kd=s⁻¹; KD=M; T½=min) (Tables 3-6).
In general terms: SPR reads the build-up and loss of mass on a sensor chip optically.

Another assay has as its target T2, Dimeric human CD48-mFc (human).
T2 construct: the whole entry is the construct; also called hCD48-mFc
T2 chain: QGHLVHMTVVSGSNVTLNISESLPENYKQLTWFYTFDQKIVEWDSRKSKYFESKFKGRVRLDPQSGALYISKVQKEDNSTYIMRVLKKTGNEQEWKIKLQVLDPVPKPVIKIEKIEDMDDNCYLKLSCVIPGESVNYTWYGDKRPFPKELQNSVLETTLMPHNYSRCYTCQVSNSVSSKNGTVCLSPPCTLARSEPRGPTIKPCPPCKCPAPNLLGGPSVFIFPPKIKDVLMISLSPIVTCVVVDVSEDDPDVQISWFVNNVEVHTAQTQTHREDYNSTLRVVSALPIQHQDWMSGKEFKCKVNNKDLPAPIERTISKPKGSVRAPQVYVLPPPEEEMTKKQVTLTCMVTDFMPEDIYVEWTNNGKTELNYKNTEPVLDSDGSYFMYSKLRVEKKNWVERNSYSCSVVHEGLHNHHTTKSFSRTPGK
The assay is described as above. Here is the method: as §1, §2

B1: H2M1764N (antibody, mouse IgG2, V domains shown)
VH: QVQLVESGGGVVQPGRSLRLSCAASGFTFSDYGMHWVRQAPGKGLEWVAVIWNDGSNKNYADSVKGRFSISSDSSKNTLYLHMNSLRAEDTAVYYCARSLYSTSPWYFDLWGRGTLVTVSS
VL: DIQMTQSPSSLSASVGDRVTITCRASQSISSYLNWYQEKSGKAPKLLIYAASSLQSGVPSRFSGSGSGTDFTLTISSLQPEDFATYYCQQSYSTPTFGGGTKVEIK
notes: Human variable domains, mouse IgG2 Fc (H2M)
In the assay with Monomeric human CD48-mmH, B1 returned a Kd of 94.7 nM, a T½ of 1 min, a koff of 0.016 s⁻¹ and a kon of 169000 M⁻¹ s⁻¹. In the assay with Dimeric human CD48-mFc, this molecule came in with a Kd of 0.586 nM, a T½ of 28 min, a dissociation rate constant (koff) of 0.000412 s⁻¹ and an on-rate (kon) of 702000 M⁻¹ s⁻¹.

B2: H2M1763N (antibody, mouse IgG2, V domains shown)
VH: QIQLVQSGAEMKRPGTSVKVSCKASGYTFTSYGINWVRQAPGQGLEWMGWISAYNGDTNYAQKLQGRVTMTTDTSTTTAYMEVRSLRSDDTAVYYCARFLTGTKDYYYGMDVWGQGTTVTVSS
VL: DIQMTQSPSSLSASVGDRVTITCQASQDISNFLNWYQQKPGKAPDLLINDASILETGVPSRFSGSGSGTDFTLTINNLQPEDIATYYCQQYDNLPLTFGGGTKVEIK
notes: as for B1
In the assay with Monomeric human CD48-mmH, B2 yielded an equilibrium dissociation constant (Kd) of 13.5 nM, a T½ of 1 min, a koff of 0.0201 s⁻¹ and a kon of 1.49e+06 M⁻¹ s⁻¹. For the same molecule, in the assay with Dimeric human CD48-mFc, the Kd was 0.293 nM, the T½ came out at 13 min, the dissociation rate constant (koff) worked out at 0.000883 s⁻¹ and the kon amounted to 3.02e+06 M⁻¹ s⁻¹.

B3: H2M1712N (antibody, mouse IgG2, V domains shown)
VH: QIQLVQSGAEMKRPGTSVKVSCKASGYTFSSYGINWVRQAPGQGLEWMGWISAYNGDTNYAQKLQGRVTMTTDTSTTTAYMEVRSLRSDDTAVYYCARFLTGTKDLYYGMDVWGQGTTVTVSS
VL: DIQMTQSPSSLSASVGDRVTITCQASQDISNFLNWYQQKPGKAPDLLINDASILETGVPSRFSGSGSGTDFTLTINSLQPEDIATYYCQQYDNLPLTFGGGTKVEIK
notes: as for B1
For the molecule B3, in the assay with Monomeric human CD48-mmH, binding was characterised by a dissociation constant (Kd) of 16.6 nM, the T½ came out at 1 min, the koff was 0.014 s⁻¹ and the kon was 846000 M⁻¹ s⁻¹. In the assay with Dimeric human CD48-mFc, this molecule had a Kd of 0.252 nM, a T½ of 17 min, a koff of 0.000685 s⁻¹ and a kon of 2.72e+06 M⁻¹ s⁻¹.

B4: H2M1713N (antibody, mouse IgG2, V domains shown)
VH: QVQLVQSGAEVKKPGASVKVSCKASGHTFTNYYIHWVRQAPGQGLEWMGITNPNDGNTRYAQKFQGRISMTWDTSTSTVFMELSSLKSEDTAVYYCAGLRYWFFDLWGRGTPVTVSS
VL: DIQMTQSPSSVSASVGDRVTITCRASQDISSWLAWYQQKPGKAPNLLIFAASSLQSGVPSRFSGSGSGTDFTLTISSLQPEDFGTYYCQQTDNFPRTFGQGTKVEIN
notes: as for B1
In the assay with Monomeric human CD48-mmH, B4 displayed a Kd of 2.74 nM, a T½ of 18 min, a koff of 0.000644 s⁻¹ and a kon of 235000 M⁻¹ s⁻¹. In the assay with Dimeric human CD48-mFc, this molecule returned a Kd of 0.0663 nM, a T½ of 140 min, an off-rate constant (koff) of 8.27e-05 s⁻¹ and a kon of 1.25e+06 M⁻¹ s⁻¹.

B5: H3M1766N (antibody, V domains shown)
VH: EVQLVESGGGLAQPGGSLRLSCAASGFTFSSYEMNWVRQAPGKGLEWVSYITTSGSTIYYADSVKGRFTMSRDNAKKSLYLEMNSLRAEDTAVYYCAREECTNGVCYKDYQYYGMDVWGQGTTVTVSS
VL: DIQMTQSPSSVSASVGDRVTITCRASQNINTWLAWYQQKPGKVPKLLIYAASSLQSGVPSRFSGSGSGTDFTLTISSLQPEDFATYYCQQANSFPLTFGGGTKVEIK
notes: Human variable domains, mouse Fc (H3M); also called H2M1766N
In the assay with Monomeric human CD48-mmH, B5 displayed a Kd of 3.84 nM, a T½ of 19 min, a koff of 0.00062 s⁻¹ and a kon of 161000 M⁻¹ s⁻¹. In the assay with Dimeric human CD48-mFc, this molecule came in with an equilibrium dissociation constant (Kd) of 0.342 nM, a T½ of 36 min, a koff of 0.000324 s⁻¹ and a kon of 949000 M⁻¹ s⁻¹.

B6: H2M1707N (antibody, V domains shown)
VH: EGQLLESGGGLAQPGGSLRLSCAASGITFGRYAMSWVRQAPGKGLEWVSLISGSGGSTYHADSVKGRFTISRDNSKNTLYLQMNSLRAEDTAVYYCAIYNNYNWFDPWGQGTLVTVSS
VL: EIVLTQSPGTLSLSPGERATLSCRASQSVSSNYLAWYQQKPGQAPRLLIYDASSRATDIPDRFSGSGSGTDFTLTISRLEPEDFAVYYCQQYGSSPRTFGQGTKVEIK
notes: as for B1
In the assay with Monomeric human CD48-mmH, B6 registered a Kd of 14.7 nM, a T½ of 4 min, a koff of 0.00314 s⁻¹ and a kon of 214000 M⁻¹ s⁻¹. In the assay with Dimeric human CD48-mFc, this molecule showed a Kd of 0.247 nM, a T½ of 51 min, a dissociation rate constant (koff) of 0.000227 s⁻¹ and a kon of 920000 M⁻¹ s⁻¹.

B7: H2M1709N (antibody, mouse IgG2, V domains shown)
VH: QVQLVQSGAEVKKPGASVKVSCKVSGYTLTELSIHWVRQAPGKGLEWMGGFDPEDGETIYAQKFQGRVNMTEDTSTDTAYMELSSLRSDDTTVYFCASLLPYFDYWGQGTLVTVSS
VL: EIVLTQSPGTLSLSPGERATLSCRASQSVSSSYLAWYQQKPGQAPRLLIYGASSRATGIPDRFSGSGSGTDFTLSISRLEPEDFAVYFCQQYGSSMYTFGQGTKLEIK
notes: as for B1
As to B7, in the assay with Monomeric human CD48-mmH, the dissociation constant Kd turned out to be 35.1 nM, the T½ is 0 min, the koff stood at 0.04 s⁻¹ and the kon was found to be 1.14e+06 M⁻¹ s⁻¹. Moreover, in the assay with Dimeric human CD48-mFc, the Kd came out at 0.248 nM, the T½ turned out to be 31 min, the koff turned out to be 0.000377 s⁻¹ and the kon is 1.52e+06 M⁻¹ s⁻¹.

B8: H2M1710N (antibody, mouse IgG2, V domains shown)
VH: QVQLVQSGADMKKPGASVRVSCKASGYTFTDYFIHWVRQAPGQGPEWMGWINPDSGATNYAQQFQGRVTMTRDTSISATYMEMSRLRSDDTAVFYCARDKDGSGWYLDDWGQGTLVTVSS
VL: EIVLTQSPATLSLSPGERATLSCRASQSVNIYLAWYQQKPGQAPRLLIYDASNRASGIPARFSGSGSGTDFTLTISSLEPEDFAVYYCQQRSNWPPSITFGQGTRLEIK
notes: as for B1
For the molecule B8, in the assay with Monomeric human CD48-mmH, the Kd came out at 153 nM, the T½ came out at 2 min, the koff was 0.0052 s⁻¹ and the on-rate (kon) is 34000 M⁻¹ s⁻¹. In the assay with Dimeric human CD48-mFc, this molecule came in with a Kd of 0.885 nM, a T½ of 27 min, a koff of 0.000426 s⁻¹ and a kon of 481000 M⁻¹ s⁻¹.

B9: H2M1811N (antibody, mouse IgG2, V domains shown)
VH: QVQLVQSGAEAREPGASVRVSCKASGYTFTDYFIHWVRQAPGQGLEWMGWINPNSGATNFAQKFQGRVTMTRDTSLITAYMDLSRLKSDDAAVFYCARDVDGSGWYLDFWGQGTLVTVSS
VL: EIVLTQSPATLSLSPGERATLSCRASQSVSIYLAWYQQKPGQAPRLLIYDASNRATGIPARFSGSGSGTDFTLTISRLEPEDFAVYYCQQRSDWPPSITFGQGTRLEIK
notes: as for B1
In the assay with Monomeric human CD48-mmH, B9 displayed a Kd of 22.7 nM, a T½ of 4 min, an off-rate (koff) of 0.00295 s⁻¹ and a kon of 130000 M⁻¹ s⁻¹. Also, in the assay with Dimeric human CD48-mFc, the affinity, expressed as Kd, was 0.966 nM; the T½ is 45 min; the koff turned out to be 0.000256 s⁻¹; the kon is 265000 M⁻¹ s⁻¹.
